Data taken from publication PMC4386032, “A Dynamin-Actin Interaction Is Required for Vesicle Scission during Endocytosis in Yeast” (Current Biology, 2015).
Residue numbers refer to the chain shown, from its start. Names may count otherwise.

B1: Vps1 (yeast dynamin), wild type, recombinant His tag fusion (natural protein, yeast (budding yeast), UniProt P21576 1-704, looked up)
chain: MDEHLISTINKLQDALAPLGGGSQSPIDLPQITVVGSQSSGKSSVLENIVGRDFLPRGTGIVTRRPLVLQLINRRPKKSEHAKVNQTANELIDLNINDDDKKKDESGKHQNEGQSEDNKEEWGEFLHLPGKKFYNFDEIRKEIVKETDKVTGANSGISSVPINLRIYSPHVLTLTLVDLPGLTKVPVGDQPPDIERQIKDMLLKYISKPNAIILSVNAANTDLANSDGLKLAREVDPEGTRTIGVLTKVDLMDQGTDVIDILAGRVIPLRYGYIPVINRGQKDIEHKKTIREALENERKFFENHPSYSSKAHYCGTPYLAKKLNSILLHHIRQTLPEIKAKIEATLKKYQNELINLGPETMDSASSVVLSMITDFSNEYAGILDGEAKELSSQELSGGARISYVFHETFKNGVDSLDPFDQIKDSDIRTIMYNSSGSAPSLFVGTEAFEVLVKQQIRRFEEPSLRLVTLVFDELVRMLKQIISQPKYSRYPALREAISNQFIQFLKDATIPTNEFVVDIIKAEQTYINTAHPDLLKGSQAMVMVEEKLHPRQVAVDPKTGKPLPTQPSSSKAPVMEEKSGFFGGFFSTKNKKKLAALESPPPVLKATGQMTERETMETEVIKLLISSYFSIVKRTIADIIPKALMLKLIVKSKTDIQKVLLEKLYGKQDIEELTKENDITIQRRKECKKMVEILRNASQIVSSV
notes: Vps1, dynamin-like protein of budding yeast; wild-type VPS1 expressed as a His tag fusion; Template plasmids pKA677 and pKA850 are named; Forms oligomeric rings by EM; also called wild-type Vps1; yeast dynamin Vps1; source: E. coli (C43), purified
B2: Vps1 RR457,458EE, recombinant His tag fusion (natural protein, yeast (budding yeast), UniProt P21576 1-704, looked up)
chain: B1 chain with R457E, R458E
notes: Vps1 of budding yeast with the charge-switch mutations R457E and R458E in a helix of the stalk domain; Made by site-directed mutagenesis of template plasmids pKA677 and pKA850; also called RR-EE; Vps1 RR-EE; source: E. coli (C43), purified

Tests used:
[1] = target: the molecule itself; experiment: negative-stain electron microscopy; purified Vps1 imaged directly, adsorbed on carbon-coated grids, negative staining with uranyl formate; oligomeric rings
[2] = target: rabbit muscle actin (F-actin) (rabbit, UniProt P68135 1-377); experiment: co-sedimentation; high-speed F-actin pelleting: purified Vps1 (supernatant of a 90,000 x g pre-spin) mixed with pre-polymerized yeast or rabbit muscle F-actin (10% KME pH 8), 15 min, spun 90,000 x g; supernatant and pellet by SDS-PAGE, densitometry; KD from a single site binding curve over a range of Vps1 concentrations; 1.5 uM Vps1 with 3 uM F-actin in Figure 1A; conditions: both partners purified

Row | Binder | binding result [1] | Kd [2]
1 | B1 | binds | 920 ± 310 nM
2 | B2 | binds | 
